Test results as given in US20040265295A1 (WISCONSIN ALUMNI RESEARCH FOUNDATION, published 2004).
Each block holds one binder with its values, some of them ahead of it. Square brackets hold non-standard residues; d marks the D form. Ends that are not written are not given here. pY = N[C@@H](Cc1ccc(OP(=O)(O)O)cc1)C(=O)O; pT = C[C@@H](OP(=O)(O)O)[C@H](N)C(=O)O

Experiments:
[1] = molecular target: T1, GST-talin head (human talin1 head region 1-435) (human, UniProt Q9Y490 1-435); experiment: GST pull-down competition in vitro; competitor His-β1-integrin tail
T1 construct: The construct is human talin1 head region (1-435) cloned from HEK293T cells; also called wild-type GST-talin; not shown: GST (and further tags) of the pET42 vector
T1 sequence (Q9Y490 1-435): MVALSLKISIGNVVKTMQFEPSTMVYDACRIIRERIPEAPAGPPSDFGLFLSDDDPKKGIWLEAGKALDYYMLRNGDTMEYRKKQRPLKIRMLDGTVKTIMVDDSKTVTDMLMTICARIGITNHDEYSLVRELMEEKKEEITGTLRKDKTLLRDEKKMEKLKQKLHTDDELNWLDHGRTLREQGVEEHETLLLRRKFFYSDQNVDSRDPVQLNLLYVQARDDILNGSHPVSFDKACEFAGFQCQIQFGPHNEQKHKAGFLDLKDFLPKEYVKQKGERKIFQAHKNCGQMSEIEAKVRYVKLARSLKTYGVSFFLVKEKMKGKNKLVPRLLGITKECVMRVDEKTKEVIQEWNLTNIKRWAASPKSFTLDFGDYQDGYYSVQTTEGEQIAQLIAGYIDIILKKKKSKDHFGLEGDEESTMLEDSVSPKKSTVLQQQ
Experimental: (§1) Talin interactions were assessed by GST pull-down using recombinant GST-talin head, His-PIPKIγ635 C-terminus, His-PIPKIγ661 wild-type or Tyr to Phe mutant C-terminus, and His-β1-integrin tail. […] Peptides containing the PIPKIγ661/talin binding sequence (Di Paolo, et al. (2002) supra) were designed to include phosphorylated Tyr⁶⁴⁴₁, phosphorylated Tyr⁶⁴⁹₁ and dual phosphorylated Tyr⁶⁴⁴ and Tyr⁶⁴⁹. The phosphorylated peptides displaced PIPKIγ661 from talin more efficiently than the non-phosphorylated peptide in HEK293T cell lysates.
(§2) Purified GST-talin head proteins were incubated with PIPKIγ661 tails or β1-integrin tail, together with Glutathione SEPHAROSE™ 4 Fast Flow (Amersham Biosciences, Piscataway, N.J.), in Buffer B (PBS, 0.2% NP-40, 2 mM DTT) at 4° C. for 4 hours. The beads were washed three times with Buffer B and analyzed by western blot. For competition assays, GST-talin head proteins were incubated with peptides or competing proteins for 2 hours, then the binding proteins were added and the mixtures were incubated for another 4 hours.

talin [2] = molecular target: T2, talin (Homo sapiens (Human), UniProt Q9Y490 1-2541); experiment: co-immunoprecipitation with talin
T2 construct: Endogenous talin of HEK293T (and other) cells, detected with anti-talin antibody; also called talin (endogenous, in cell lysates)
T2 sequence (Q9Y490 other isoform, or with tags, fused parts or gaps limits assumed): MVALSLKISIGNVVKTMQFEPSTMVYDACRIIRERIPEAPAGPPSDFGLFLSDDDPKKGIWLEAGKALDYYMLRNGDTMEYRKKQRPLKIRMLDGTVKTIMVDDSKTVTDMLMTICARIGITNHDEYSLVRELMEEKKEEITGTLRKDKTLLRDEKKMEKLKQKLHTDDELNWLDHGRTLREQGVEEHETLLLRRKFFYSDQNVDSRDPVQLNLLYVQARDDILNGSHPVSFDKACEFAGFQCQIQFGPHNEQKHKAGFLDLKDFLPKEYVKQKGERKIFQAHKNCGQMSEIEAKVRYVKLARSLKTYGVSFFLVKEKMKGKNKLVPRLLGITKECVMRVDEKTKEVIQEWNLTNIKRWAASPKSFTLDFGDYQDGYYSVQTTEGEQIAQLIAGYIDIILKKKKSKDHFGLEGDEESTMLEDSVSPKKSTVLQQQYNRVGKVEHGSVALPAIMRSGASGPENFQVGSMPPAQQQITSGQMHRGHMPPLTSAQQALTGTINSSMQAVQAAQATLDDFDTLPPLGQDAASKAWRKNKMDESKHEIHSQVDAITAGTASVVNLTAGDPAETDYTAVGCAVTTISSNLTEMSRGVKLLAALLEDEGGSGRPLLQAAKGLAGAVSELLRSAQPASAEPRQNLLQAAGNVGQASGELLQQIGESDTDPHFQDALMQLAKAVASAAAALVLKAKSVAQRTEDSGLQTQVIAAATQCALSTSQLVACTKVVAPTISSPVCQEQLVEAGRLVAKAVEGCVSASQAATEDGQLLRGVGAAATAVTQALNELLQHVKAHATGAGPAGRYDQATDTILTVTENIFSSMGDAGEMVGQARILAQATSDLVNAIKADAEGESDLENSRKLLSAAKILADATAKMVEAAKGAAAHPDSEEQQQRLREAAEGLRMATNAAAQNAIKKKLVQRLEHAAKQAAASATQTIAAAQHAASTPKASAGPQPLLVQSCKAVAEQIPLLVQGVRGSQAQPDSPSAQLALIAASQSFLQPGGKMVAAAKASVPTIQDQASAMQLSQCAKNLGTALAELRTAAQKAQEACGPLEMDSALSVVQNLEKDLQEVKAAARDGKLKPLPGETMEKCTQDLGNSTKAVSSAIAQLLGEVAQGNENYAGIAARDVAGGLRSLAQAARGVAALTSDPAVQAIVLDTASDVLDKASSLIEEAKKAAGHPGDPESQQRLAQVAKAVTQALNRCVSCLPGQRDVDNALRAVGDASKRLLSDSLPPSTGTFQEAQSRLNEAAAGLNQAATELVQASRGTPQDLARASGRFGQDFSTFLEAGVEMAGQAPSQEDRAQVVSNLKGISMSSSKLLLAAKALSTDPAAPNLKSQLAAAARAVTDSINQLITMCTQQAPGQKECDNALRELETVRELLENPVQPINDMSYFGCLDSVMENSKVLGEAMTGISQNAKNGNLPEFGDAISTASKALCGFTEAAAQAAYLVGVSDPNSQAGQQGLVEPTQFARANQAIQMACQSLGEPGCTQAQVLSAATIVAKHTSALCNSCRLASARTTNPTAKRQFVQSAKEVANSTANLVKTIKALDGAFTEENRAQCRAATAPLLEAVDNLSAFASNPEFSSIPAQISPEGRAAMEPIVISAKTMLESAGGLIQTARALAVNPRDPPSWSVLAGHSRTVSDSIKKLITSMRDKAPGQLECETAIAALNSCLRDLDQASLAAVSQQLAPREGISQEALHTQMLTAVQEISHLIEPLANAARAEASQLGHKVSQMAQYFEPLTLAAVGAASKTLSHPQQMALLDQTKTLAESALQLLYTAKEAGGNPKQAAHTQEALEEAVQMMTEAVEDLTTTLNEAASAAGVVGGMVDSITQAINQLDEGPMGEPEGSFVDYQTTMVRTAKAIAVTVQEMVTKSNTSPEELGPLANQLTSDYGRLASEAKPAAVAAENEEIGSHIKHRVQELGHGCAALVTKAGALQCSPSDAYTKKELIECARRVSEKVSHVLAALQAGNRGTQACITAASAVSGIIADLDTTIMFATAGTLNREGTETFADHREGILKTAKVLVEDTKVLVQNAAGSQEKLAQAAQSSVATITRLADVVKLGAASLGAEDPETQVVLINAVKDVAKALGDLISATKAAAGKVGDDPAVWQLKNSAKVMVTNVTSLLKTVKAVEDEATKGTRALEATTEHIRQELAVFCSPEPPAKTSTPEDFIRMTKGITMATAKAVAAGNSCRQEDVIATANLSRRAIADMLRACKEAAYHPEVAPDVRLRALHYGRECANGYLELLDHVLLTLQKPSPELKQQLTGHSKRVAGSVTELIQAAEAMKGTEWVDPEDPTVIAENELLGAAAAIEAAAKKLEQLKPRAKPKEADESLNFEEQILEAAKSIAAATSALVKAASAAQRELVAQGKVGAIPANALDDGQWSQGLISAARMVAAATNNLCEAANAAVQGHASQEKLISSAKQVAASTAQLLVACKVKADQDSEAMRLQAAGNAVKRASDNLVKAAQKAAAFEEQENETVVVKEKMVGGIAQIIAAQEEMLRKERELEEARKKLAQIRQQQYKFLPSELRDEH

talin [3] = molecular target: T2, talin; experiment: co-immunoprecipitation of c-Myc-tagged chimeras
Description: (§3) Two approaches were used to identify proteins that specifically interact with PIPKIγ661. […] As numerous focal adhesion proteins are tyrosine phosphorylated, the immunoprecipitates were immunoblotted with anti-phosphotyrosine antibodies. A tyrosine-phosphorylated protein of relative molecular mass 230,000 (Mᵣ 230K) was selectively immunoprecipitated with PIPKIγ661. This protein was identified as talin (Pasquale, et al. (1986) Proc. Natl Acad. Sci. USA 83:5507-5511; DeClue and Martin (1987) Mol. Cell Biol. 7:371-378). […] Only the PIPKIα/γ chimeras that target to focal adhesions associated with talin. To confirm the talin-PIPKIγ661 interaction, talin was immunoprecipitated from HEK293T cells overexpressing PIPKIγ661 or PIPKIγ635. Talin co-precipitated with PIPKIγ661, but not PIPKIγ635. It is known that endogenous PIPKIγ splice isoforms are widely expressed in various cell lines. When endogenous PIPKIγ was immunoprecipitated from a variety of cells types, talin association was consistently observed.
(§4) Immunoprecipitation was performed using standard methods (Zhang, et al. (1997) J. Biol. Chem. 272:17756-17761). […] The immunocomplexes were washed with Buffer A, separated by SDS-polyacrylamide gel electrophoresis (SDS-PAGE), and analyzed as indicated. […]

[4] = molecular target: T1, GST-talin head (human talin1 head …); experiment: peptide competition of integrin tail (competitor) binding to GST-talin
Experimental: as §2

tensin = tensin (UniProt Q9HBL0 1-1839, limits assumed); experiment: co-immunoprecipitation with HA-tagged PIPKIγ661 from HEK 293T cells
Sequence of tensin (Q9HBL0 whole entry): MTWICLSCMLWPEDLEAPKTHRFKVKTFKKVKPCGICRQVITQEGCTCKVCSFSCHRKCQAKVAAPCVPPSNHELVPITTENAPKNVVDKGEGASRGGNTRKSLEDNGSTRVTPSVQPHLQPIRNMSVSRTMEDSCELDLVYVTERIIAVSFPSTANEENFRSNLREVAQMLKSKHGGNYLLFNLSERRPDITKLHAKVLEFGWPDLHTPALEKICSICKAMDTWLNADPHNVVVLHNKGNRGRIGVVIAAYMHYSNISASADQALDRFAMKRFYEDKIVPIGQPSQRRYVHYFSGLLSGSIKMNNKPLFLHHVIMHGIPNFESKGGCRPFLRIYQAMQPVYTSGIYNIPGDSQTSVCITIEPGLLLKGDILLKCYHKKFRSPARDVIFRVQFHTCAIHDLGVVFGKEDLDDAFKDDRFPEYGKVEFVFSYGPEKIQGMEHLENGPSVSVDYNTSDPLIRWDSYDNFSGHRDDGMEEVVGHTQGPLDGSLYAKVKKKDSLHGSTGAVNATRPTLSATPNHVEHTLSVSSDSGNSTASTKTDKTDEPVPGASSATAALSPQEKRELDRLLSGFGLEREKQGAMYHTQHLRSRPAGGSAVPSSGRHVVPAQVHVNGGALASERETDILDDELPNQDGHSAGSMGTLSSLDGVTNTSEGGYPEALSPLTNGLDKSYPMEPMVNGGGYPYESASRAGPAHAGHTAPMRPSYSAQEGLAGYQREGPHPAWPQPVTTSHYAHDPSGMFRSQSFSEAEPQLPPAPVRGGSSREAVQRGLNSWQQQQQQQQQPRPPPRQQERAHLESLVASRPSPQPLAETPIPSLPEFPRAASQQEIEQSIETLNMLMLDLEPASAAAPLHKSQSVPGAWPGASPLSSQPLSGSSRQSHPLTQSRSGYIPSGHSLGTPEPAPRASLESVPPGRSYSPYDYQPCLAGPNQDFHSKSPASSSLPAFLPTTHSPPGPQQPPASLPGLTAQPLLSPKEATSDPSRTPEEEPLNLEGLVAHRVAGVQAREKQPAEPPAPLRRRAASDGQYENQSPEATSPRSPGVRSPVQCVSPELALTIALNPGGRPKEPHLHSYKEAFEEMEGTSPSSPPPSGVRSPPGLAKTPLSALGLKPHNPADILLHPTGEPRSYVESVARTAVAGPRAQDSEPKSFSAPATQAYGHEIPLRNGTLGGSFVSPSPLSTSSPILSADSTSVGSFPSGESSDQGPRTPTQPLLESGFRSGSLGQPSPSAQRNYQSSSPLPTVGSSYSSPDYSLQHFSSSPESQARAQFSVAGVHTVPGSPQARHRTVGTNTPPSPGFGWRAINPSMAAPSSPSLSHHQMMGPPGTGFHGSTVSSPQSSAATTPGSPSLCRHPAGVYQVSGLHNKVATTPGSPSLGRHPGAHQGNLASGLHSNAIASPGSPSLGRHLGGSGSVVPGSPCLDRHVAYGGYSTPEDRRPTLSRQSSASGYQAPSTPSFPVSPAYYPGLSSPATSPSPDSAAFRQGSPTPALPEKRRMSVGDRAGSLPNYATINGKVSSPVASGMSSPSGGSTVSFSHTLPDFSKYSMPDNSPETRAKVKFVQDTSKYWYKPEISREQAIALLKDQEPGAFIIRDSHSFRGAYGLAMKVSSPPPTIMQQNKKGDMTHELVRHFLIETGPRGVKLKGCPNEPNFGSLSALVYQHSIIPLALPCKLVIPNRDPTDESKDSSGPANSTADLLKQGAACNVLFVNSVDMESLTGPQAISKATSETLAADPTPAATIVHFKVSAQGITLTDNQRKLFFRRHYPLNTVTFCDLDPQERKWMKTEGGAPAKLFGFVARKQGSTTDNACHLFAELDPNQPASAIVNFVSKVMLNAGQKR
Description: as §3, §4

vinculin = molecular target: T3, vinculin (UniProt P18206-2 1-1066, limits assumed); experiment: as above
T3 sequence (looked up): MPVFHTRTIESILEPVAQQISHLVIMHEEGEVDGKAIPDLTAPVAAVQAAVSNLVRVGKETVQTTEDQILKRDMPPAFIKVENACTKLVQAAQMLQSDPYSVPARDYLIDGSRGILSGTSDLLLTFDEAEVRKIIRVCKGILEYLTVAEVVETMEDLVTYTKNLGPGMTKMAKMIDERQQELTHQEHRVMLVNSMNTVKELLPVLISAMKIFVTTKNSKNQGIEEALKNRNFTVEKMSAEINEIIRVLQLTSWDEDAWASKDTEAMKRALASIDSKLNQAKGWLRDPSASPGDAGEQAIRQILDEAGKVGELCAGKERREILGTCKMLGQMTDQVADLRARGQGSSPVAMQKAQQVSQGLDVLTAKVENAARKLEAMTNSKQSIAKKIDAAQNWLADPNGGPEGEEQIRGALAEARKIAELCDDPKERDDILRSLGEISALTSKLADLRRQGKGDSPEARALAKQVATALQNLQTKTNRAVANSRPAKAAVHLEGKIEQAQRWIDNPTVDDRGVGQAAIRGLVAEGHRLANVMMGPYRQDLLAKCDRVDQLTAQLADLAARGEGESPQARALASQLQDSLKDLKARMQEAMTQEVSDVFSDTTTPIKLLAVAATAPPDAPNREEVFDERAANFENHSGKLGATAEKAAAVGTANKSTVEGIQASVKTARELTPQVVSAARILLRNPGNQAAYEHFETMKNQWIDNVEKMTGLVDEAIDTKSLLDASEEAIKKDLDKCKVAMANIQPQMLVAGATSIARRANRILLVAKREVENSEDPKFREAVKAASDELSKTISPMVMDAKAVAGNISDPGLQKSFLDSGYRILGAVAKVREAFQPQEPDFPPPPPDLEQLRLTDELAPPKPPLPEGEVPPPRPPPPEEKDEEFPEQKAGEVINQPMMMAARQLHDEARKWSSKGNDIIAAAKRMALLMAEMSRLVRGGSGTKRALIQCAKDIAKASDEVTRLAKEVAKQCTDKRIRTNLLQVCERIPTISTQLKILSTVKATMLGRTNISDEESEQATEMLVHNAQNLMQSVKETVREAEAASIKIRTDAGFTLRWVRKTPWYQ
Description: as §3, §4

talin [5] = molecular target: T2, talin; experiment: co-immunoprecipitation from HEK293T cells in suspension versus adherent to type I collagen
Experimental: The association between PIPKIγ661 and talin was also regulated by adhesion to type I collagen. […] However, in suspended cells, the PIPKIγ661 association with talin was restored when cells were stimulated with lysophosphatidic acid (LPA) or platelet-derived growth factor (PDGF).
Immunoprecipitation was performed using standard methods (Zhang, et al. (1997) J. Biol. Chem. 272:17756-17761). Briefly, transfected HEK293T cells were harvested and lysed in Buffer A (50 mM Tris-HCl, pH 7.5, 150 mM NaCl, 0.1-1.0% NP-40, 5.0 mM NaF, 2 mM Na₃VO₄, 4 mM Na₂P₂O₇, 1 mM EDTA, 0.1 mM EGTA, 1 mM phenylmethyl sulphonyl fluoride (PMSF), 10% glycerol), centrifuged and incubated with protein A-Sepharose and 5 μg anti-HA, anti-c-Myc, anti-Flag, anti-PIPKIγ or anti-talin antibody as indicated at 4° C. for 4 hours to overnight. The immunocomplexes were washed with Buffer A, separated by SDS-polyacrylamide gel electrophoresis (SDS-PAGE), and analyzed as indicated. For the kinase assay, the immunocomplexes were washed and stored in kinase buffer.
The cells were harvested and washed with PBS, and suspended in serum-free DMEM at 37° C. for 1 hour. After stimulation with 10 ng/ml platelet-derived growth factor (PDGF) (R&D Systems Inc., Minneapolis, Minn.), 1 μuM LPA (Sigma, St. Louis) or serum at 37° C. for 15 minutes, cells were lysed as for immunoprecipitation. […]

talin [6] = molecular target: T2, talin; experiment: peptide displacement of PIPKIγ661 (competitor) from talin in HEK293T cell lysates
Experimental: as §1

B1: PIPKIγ661 peptide pY649 (peptide)
peptide: CDERSWVYSPLH[pY]SAR
notes: Synthetic peptide with an added N-terminal Cys
- fold higher affinity than the non-phosphorylated peptide [1]: 20 fold

B4: PIPKIγ661 peptide pY644/649 (peptide)
peptide: CDERSWV[pY]SPLH[pY]SAR
notes: Synthetic peptide with an added N-terminal Cys; also called dual phosphorylated peptide
- fold higher affinity than the non-phosphorylated peptide [1]: 20 fold

B5: β1-integrin tail peptide β1InpY (peptide)
peptide: CMNAKWDTGENPI[pY]KSA
modifications: not fully specified; printed as Cys-Met-Asn-Ala-Lys-Trp-Asp-*Thr-Gly-Glu-Asn-Pro-Ile-*Tyr-Lys-Ser-Ala
notes: also called phosphorylated Asn-Pro-Ile-Tyr peptide
- binding result [4]: binds

B6: PIPKIγ661 peptide pY644 (peptide)
peptide: CDERSWV[pY]SPLHYSAR
notes: as for B1
- fold higher affinity than the non-phosphorylated peptide [1]: 20 fold

B7: β1-integrin tail peptide β1InpT (peptide)
peptide: CMNAKWD[pT]GENPIYKSA
notes: Synthetic peptide; also called phosphorylated Trp-Asp-Thr peptide
- binding result [4]: binds

B9: PIPKIγ661 peptide PN (peptide)
peptide: CDERSWVYSPLHYSAR
notes: Synthetic peptide with an added N-terminal Cys; also called non-phosphorylated peptide; unphosphorylated peptide
- binding result (talin [6]): binds

The remaining lines, values ahead:

- binding result (talin [2]): no binding
B2: PIPKIγ-W (enzyme)
chain: MELEVPDEAESAEAGAVTAEAAWSAESGAAAGMTQKKAGLAEAPLVTGQPGPGHGKKLGHRGVDASGETTYKKTTSSTLKGAIQLGIGYTVGNLSSKPERDVLMQDFYVMESIFFPSEGSNFTPAHHFQDFRFKTYAPVAFRYFRELFGIRPDDYLYSLCNEPLIELSNPGASGSVFYVTSDDEFIIKTVMHKEAEFLQKLLPGYYMNLNQNPRTLLPKFYGLYCVQSGGKNIRVVVMNNVLPRVVKMHLKFDLKGSTYKRRASKKEKEKSLPTYKDLDFMQDMPEGLLLDSDTFGALVKTLQRDCLVLESFKIMDYSLLLGVHNIDQQERERQAEGAQSKADEKRPVAQKALYSTAMESIQGGAARGEAIETDDTMGGIPAVNGRGERLLLHIGIIDILQSYRFIKKLEHTWKALVHDGDTVSVHRPSFYAERFFKFMSSTVFRKSSSLKSSPSKKGRGALLAVKPLGPTAAFSASQIPSEREDVQYDLRGARSYPTLEDEGRPDLLPCTPPSFEEATTASIATTLSSTSLSIPERSPSDTSEQPRYRRRTQSSGQDGRPQEEPHAEDLQKITVQVEPVCGVGVVPKEEGAGVEVPPCGASAAASVEIDAASQASEPASQASDEEDAPSTDIYFPTDERS
notes: The text says only that it lacks both Tyr644 and Tyr649; The end at Trp642 is inferred from the name; also called tail-truncation mutant of PIPKIγ661 lacking Tyr644 and Tyr649

- binding result (talin [3]): no binding
B3: PIPKIα/γ635 chimera (c-Myc-tagged) (enzyme, not shown: small tags and cut ends)
chain: MASASSGPSSSVGFSSFDPAVPSCTLSSAASGIKRPMASEVLEARQDSYISLVPYASGMPIKKIGHRSVDSSGETTYKKTTSSALKGAIQLGITHTVGSLSTKPERDVLMQDFYVVESIFFPSEGSNLTPAHHYNDFRFKTYAPVAFRYFRELFGIRPDDYLYSLCSEPLIELCSSGASGSLFYVSSDDEFIIKTVQHKEAEFLQKLLPGYYMNLNQNPRTLLPKFYGLYCVQAGGKNIRIVVMNNLLPRSVKMHIKYDLKGSTYKRRASQKEREKPLPTFKDLDFLQDIPDGLFLDADMYNALCKTLQRDCLVLQSFKIMDYSLLMSIHNIDHAQREPLSSETQYSVDTRRPAPQKALYSTAMESIQGEARRGGTMETDDHMGGIPARNSKGERLLLYIGIIDILQSYRFVKKLEHSWKALVHDGDTVSVHRPGFYAERFQRFEDVQYDLRGARSYPTLEDEGRPDLLPCTPPSFEEATTASIATTLSSTSLSIPERSPSDTSEQPRYRRRTQSSGQDGRPQEEPHAEDLQKITVQVEPVCGVGVVPKEEGAGVEVPPCGASAAASVEIDAASQASEPASQASDEEDAPSTDIYF
notes: range 1-444

- binding result (tensin): no binding
- binding result (vinculin): no binding
- binding result (talin [5]): binds
B8: Haemagglutinin (HA)-tagged PIPKIγ661 (enzyme, not shown: small tags and cut ends)
chain: MELEVPDEAESAEAGAVTAEAAWSAESGAAAGMTQKKAGLAEAPLVTGQPGPGHGKKLGHRGVDASGETTYKKTTSSTLKGAIQLGIGYTVGNLSSKPERDVLMQDFYVMESIFFPSEGSNFTPAHHFQDFRFKTYAPVAFRYFRELFGIRPDDYLYSLCNEPLIELSNPGASGSVFYVTSDDEFIIKTVMHKEAEFLQKLLPGYYMNLNQNPRTLLPKFYGLYCVQSGGKNIRVVVMNNVLPRVVKMHLKFDLKGSTYKRRASKKEKEKSLPTYKDLDFMQDMPEGLLLDSDTFGALVKTLQRDCLVLESFKIMDYSLLLGVHNIDQQERERQAEGAQSKADEKRPVAQKALYSTAMESIQGGAARGEAIETDDTMGGIPAVNGRGERLLLHIGIIDILQSYRFIKKLEHTWKALVHDGDTVSVHRPSFYAERFFKFMSSTVFRKSSSLKSSPSKKGRGALLAVKPLGPTAAFSASQIPSEREDVQYDLRGARSYPTLEDEGRPDLLPCTPPSFEEATTASIATTLSSTSLSIPERSPSDTSEQPRYRRRTQSSGQDGRPQEEPHAEDLQKITVQVEPVCGVGVVPKEEGAGVEVPPCGASAAASVEIDAASQASEPASQASDEEDAPSTDIYFPTDERSWVYSPLHYSARPASDGESDT
notes: tyrosine phosphorylated in cells to an extent that depends on the conditions; also called Type I phosphatidylinositol phosphate kinase isoform γ661; HA-PIPKIγ661
